This note sets out measurements from paper PMC5799372, “A NIN-LIKE PROTEIN mediates nitrate-induced control of root nodule symbiosis in Lotus japonicus”.

For data set [1], the target named is T1, NRSYM1(531-976)-myc (Lotus japonicus (WT, MG-20?), UniProt A0A2Z5V8A6 531-976). The data set is described as follows: EMSA; 20 mM HEPES-KOH pH 7.9, 50 mM KCl, 1 mM DTT, 4% glycerol, 0.1% Triton X-100, BSA (2 mg) and salmon sperm DNA (1 mg) as printed, 10 ul, 30 min room temperature. The note with it: protein: ivt, tags: 3xMyc (cds cloned downstream of the tag, N-terminal), 5' overhang 4 nt (ggtg) on both strands as printed.

For data set [2], the target named is T1, NRSYM1(531-976)-myc. Kind of data set: competition; unlabeled competitor 20x/100x vs CLE-RS2-1 probe; 20 mM HEPES-KOH pH 7.9, 50 mM KCl, 1 mM DTT, 4% glycerol, 0.1% Triton X-100, BSA (2 mg) and salmon sperm DNA (1 mg) as printed, 10 ul, 30 min room temperature. The following applies: protein: ivt; tags: 3xMyc (cds cloned downstream of the tag, N-terminal); label: biotin (probe); 5' overhang 4 nt (ggtg) on both strands as printed.

Residue numbers refer to the chain shown, from its start.

T1 sequence (A0A2Z5V8A6 entry or part of it): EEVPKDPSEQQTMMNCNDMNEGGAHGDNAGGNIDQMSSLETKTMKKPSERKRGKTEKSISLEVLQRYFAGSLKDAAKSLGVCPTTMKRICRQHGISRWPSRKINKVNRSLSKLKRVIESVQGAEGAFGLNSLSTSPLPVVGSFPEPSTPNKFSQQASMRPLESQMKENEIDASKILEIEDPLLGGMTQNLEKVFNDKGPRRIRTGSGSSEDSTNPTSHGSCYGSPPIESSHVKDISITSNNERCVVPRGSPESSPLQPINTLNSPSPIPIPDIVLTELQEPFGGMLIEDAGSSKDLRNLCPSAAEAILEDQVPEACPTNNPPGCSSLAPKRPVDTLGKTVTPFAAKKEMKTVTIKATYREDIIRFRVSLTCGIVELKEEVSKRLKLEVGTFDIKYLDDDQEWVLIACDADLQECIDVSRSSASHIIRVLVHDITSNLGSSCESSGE

B1: CLE-RS2-4 (dsDNA)
DNA 1: GGTGATATATTCATGATCTTTAATTCACTTGAAGAGTTAGTGATTGAT
DNA 2: GGTGATCAATCACTAACTCTTCAAGTGAATTAAAGATCATGAATATAT
Regarding B1, the binding result in data set [1] (label: biotin (probe)) is on record as “binds”.

B2: CLE-RS2-3 (dsDNA)
DNA 1: GGTGGTATCAAACTGACCCCTAGTTTCAGTCCAAAGCCACCTTGATTG
DNA 2: GGTGCAATCAAGGTGGCTTTGGACTGAAACTAGGGGTCAGTTTGATAC
With B2, the binding result in data set [1] (label: biotin (probe)) is recorded as “binds”.

B3: CLE-RS2-1 (dsDNA)
DNA 1: GGTGTGTGAGTTCTGACCCTTAAGCCTTGGAAAGGACAGTCATGCAA
DNA 2: GGTGTTGCATGACTGTCCTTTCCAAGGCTTAAGGGTCAGAACTCACA
With B3, the binding result in data set [1] (label: biotin (probe)) is “binds”.

B4: CLE-RS2-1m (dsDNA)
DNA 1: B3 DNA 1 with C17G, C18G, C19G, T20A, T21A
DNA 2: B3 DNA 2 with A31T, A32T, G33C, G34C, G35C
In the case of B4, the binding result in data set [2] was “no binding”.

B5: LjNIR1-3 (dsDNA)
DNA 1: GGTGACACAAACACGACCCTTTGTCACAACCAAAGGTCCATTGTAGCA
DNA 2: GGTGTGCTACAATGGACCTTTGGTTGTGACAAAGGGTCGTGTTTGTGT
As for B5, the binding result in data set [1] (label: biotin (probe)) is reported as “binds”.

B6: LjNIR1-3m1 (dsDNA)
DNA 1: B5 DNA 1 with C17G, C18G, C19G, T20A, T21A
DNA 2: B5 DNA 2 with A32T, A33T, G34C, G35C, G36C
Turning to B6, in data set [1] (label: biotin), the binding result is on record as “no binding”.
